According to the supplement of paper PMC7125110:
± gives the standard error. Fewer inactive variants are shown than the library holds.

B1: glmS ribozyme (parent)
chain: AUAAAAGCGCCAGAACUACAGAAAUGUAGUUGACGAGGAGGAGGUUUAUCGAAUUUUCGGCGGAUGCCUCCAAA

Variants of: B1
Test: self-cleavage kobs at 10000 uM GlcN6P; higher = faster cleavage; RNA array
Details: with glucosamine-6-phosphate
Procedure, shortened: (§1)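 Tiles bearing barcoded ribozyme variants, transcribed in situ by E. coli RNA polymerase on sequenced MiSeq chips, were imaged over ~14 h at 37 °C using a hybridised Cy3 probe. Glucosamine-6-phosphate was supplied at 40 μM to 10 mM in HEPES/KCl/Mg(OAc)2 buffer. kobs came from one- or two-exponential decay fits to normalised per-tile medians, and weighted Michaelis–Menten fits then provided kcat and KM.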

C8G C16U A53G C61U and C8A U56A A64G cannot be ordered by “self-cleavage kobs at 10000 uM GlcN6P” value: under 1e-05 s⁻¹ for the first, under 1e-05 s⁻¹ for the second.

Going from A12C G13C G32A A39U to C16A G41A G51C, the “self-cleavage kobs at 10000 uM GlcN6P” value falls from 5.7e-05 ± 1e-05 s⁻¹ to under 1e-05 s⁻¹.

C8G A15C G40A G41U C50U C70G and A14C A48C G59U cannot be ordered by “self-cleavage kobs at 10000 uM GlcN6P” value: under 1e-05 s⁻¹ for the first, under 1e-05 s⁻¹ for the second.

Compared with A14G G44C U55G C67U, A6C G7C G35A C68G is lower in “self-cleavage kobs at 10000 uM GlcN6P” value: 0.000221 ± 4.1e-05 s⁻¹ for the first, under 1e-05 s⁻¹ for the second.

First: C8U A42U C50U
Second: A14C A39U C67G
The “self-cleavage kobs at 10000 uM GlcN6P” value of the first is lower: under 1e-05 s⁻¹ for the first, 0.000928 ± 0.00017 s⁻¹ for the second.

Compared with C16A G44A C67A, C8A C11G U49C C67G is lower in “self-cleavage kobs at 10000 uM GlcN6P” value: 9.58e-05 ± 2.5e-05 s⁻¹ for the first, under 1e-05 s⁻¹ for the second.

A15G G29C G43U G60U and A14U U55C C67A C70A C71U cannot be ordered by “self-cleavage kobs at 10000 uM GlcN6P” value: under 1e-05 s⁻¹ for the first, under 1e-05 s⁻¹ for the second.

A15G A52G C67U C71G and A12U U47G A52U U69G are within error of each other in “self-cleavage kobs at 10000 uM GlcN6P” value: 4.89e-05 ± 1.3e-05 s⁻¹ for the first, 6.72e-05 ± 3e-05 s⁻¹ for the second.

G9U G43U A53C and A15C A33U U47C U57G C68U U69C cannot be ordered by “self-cleavage kobs at 10000 uM GlcN6P” value: under 1e-05 s⁻¹ for the first, under 1e-05 s⁻¹ for the second.

Going from C11U A36C A39G U45G C61U to A12U A15U G29A, the “self-cleavage kobs at 10000 uM GlcN6P” value rises from under 1e-05 s⁻¹ to 0.00126 ± 0.00032 s⁻¹.

Compared with A14C A15U G32C C58U, A6U U31C A36C is lower in “self-cleavage kobs at 10000 uM GlcN6P” value: 3.19e-05 ± 1.1e-05 s⁻¹ for the first, under 1e-05 s⁻¹ for the second.

Compared with A15C G35C C50G, A6C C8A A36C is lower in “self-cleavage kobs at 10000 uM GlcN6P” value: 4.99e-05 ± 1.2e-05 s⁻¹ for the first, under 1e-05 s⁻¹ for the second.

First: C10U A15C U31C
Second: A12U C16U A42G
The “self-cleavage kobs at 10000 uM GlcN6P” value of the first is lower: under 1e-05 s⁻¹ for the first, 0.0803 ± 0.038 s⁻¹ for the second.

Compared with C16G G29U C58A, C10G C11G U55C G60A is lower in “self-cleavage kobs at 10000 uM GlcN6P” value: 0.000585 ± 0.00014 s⁻¹ for the first, under 1e-05 s⁻¹ for the second.

First: A14U G35C G41A U46A
Second: A12C C68G
The “self-cleavage kobs at 10000 uM GlcN6P” value of the first is lower: under 1e-05 s⁻¹ for the first, 2.93e-05 ± 8.5e-06 s⁻¹ for the second.

Going from A12U G40U U54A to A14U G37C G59C C67U, the “self-cleavage kobs at 10000 uM GlcN6P” value falls from 0.000861 ± 0.00024 s⁻¹ to under 1e-05 s⁻¹.

Going from C10G G40U U46C C71U to A15U G21U, the “self-cleavage kobs at 10000 uM GlcN6P” value rises from under 1e-05 s⁻¹ to 0.00395 ± 0.00079 s⁻¹.

Going from C11U U31G U54A to A12U C34A A39U C70U, the “self-cleavage kobs at 10000 uM GlcN6P” value falls from 0.0029 ± 0.0008 s⁻¹ to under 1e-05 s⁻¹.

G9U A15U A52U and G13A G51U G60U cannot be ordered by “self-cleavage kobs at 10000 uM GlcN6P” value: under 1e-05 s⁻¹ for the first, under 1e-05 s⁻¹ for the second.

A6C U31A G44A U65A and A6U G7U G9C cannot be ordered by “self-cleavage kobs at 10000 uM GlcN6P” value: under 1e-05 s⁻¹ for the first, under 1e-05 s⁻¹ for the second.

Going from A14U A53U U56G C58U to A6C A15U C34A A39G U65A, the “self-cleavage kobs at 10000 uM GlcN6P” value falls from 3.75e-05 ± 8.7e-06 s⁻¹ to under 1e-05 s⁻¹.

C10U G37C G43C U47C and A14U A48C U56G C68A cannot be ordered by “self-cleavage kobs at 10000 uM GlcN6P” value: under 1e-05 s⁻¹ for the first, under 1e-05 s⁻¹ for the second.

Compared with G7C G41A C61U, A14U C34U C68G is higher in “self-cleavage kobs at 10000 uM GlcN6P” value: under 1e-05 s⁻¹ for the first, 7.15e-05 ± 2.1e-05 s⁻¹ for the second.

A6G C34A A42U U54G and C10G A42C U69G cannot be ordered by “self-cleavage kobs at 10000 uM GlcN6P” value: under 1e-05 s⁻¹ for the first, under 1e-05 s⁻¹ for the second.

Compared with A12G U30G A53U, A12G A14C U31C U47G A52G G59A G60U is lower in “self-cleavage kobs at 10000 uM GlcN6P” value: 9.4e-05 ± 2e-05 s⁻¹ for the first, under 1e-05 s⁻¹ for the second.

C8G U30A A39G G41C U54G C67A and G7U A15C A36G cannot be ordered by “self-cleavage kobs at 10000 uM GlcN6P” value: under 1e-05 s⁻¹ for the first, under 1e-05 s⁻¹ for the second.

C8A C11U C34U A39U C58A C67U and G9C C34U cannot be ordered by “self-cleavage kobs at 10000 uM GlcN6P” value: under 1e-05 s⁻¹ for the first, under 1e-05 s⁻¹ for the second.

Going from A12C G26A G41A U54G to A12U C50G G62A C71U, the “self-cleavage kobs at 10000 uM GlcN6P” value falls from 0.00044 ± 0.00012 s⁻¹ to 8.18e-05 ± 2.2e-05 s⁻¹ (5.4-fold).

Compared with C8U C10U G13C C50G G51U A52C C71A, G13C A15U C58G is higher in “self-cleavage kobs at 10000 uM GlcN6P” value: under 1e-05 s⁻¹ for the first, 0.000104 ± 1.7e-05 s⁻¹ for the second.

Compared with C11A U31C U45A, A12G A14C C50G C71A is 3.1-fold higher in “self-cleavage kobs at 10000 uM GlcN6P” value: 4.34e-05 ± 1.5e-05 s⁻¹ for the first, 0.000133 ± 3.2e-05 s⁻¹ for the second.

Going from A6C C50A U55G to A14C G41C, the “self-cleavage kobs at 10000 uM GlcN6P” value rises from under 1e-05 s⁻¹ to 3.51e-05 ± 1.1e-05 s⁻¹.

A6U A39C G43U G51U C70G C71A and A14C A42C U46G A52G cannot be ordered by “self-cleavage kobs at 10000 uM GlcN6P” value: under 1e-05 s⁻¹ for the first, under 1e-05 s⁻¹ for the second.

Going from G13C U49G G59U to A14U A39C U65C, the “self-cleavage kobs at 10000 uM GlcN6P” value rises from under 1e-05 s⁻¹ to 6.04e-05 ± 1.6e-05 s⁻¹.

First: A15U A33C C58A C68A
Second: A15G U65C C67U
The “self-cleavage kobs at 10000 uM GlcN6P” value of the first is lower: under 1e-05 s⁻¹ for the first, 7.42e-05 ± 1.7e-05 s⁻¹ for the second.

C10U U30A C68U and C8U U30G A39G G43U cannot be ordered by “self-cleavage kobs at 10000 uM GlcN6P” value: under 1e-05 s⁻¹ for the first, under 1e-05 s⁻¹ for the second.

First: A12U G29A C70A
Second: G7U G29C A48G C50G C71A
The “self-cleavage kobs at 10000 uM GlcN6P” value of the first is 9.9-fold lower: 9.81e-05 ± 2.5e-05 s⁻¹ for the first, 0.00097 ± 0.00047 s⁻¹ for the second.

C8G G51U G59U and C8U A14U A36U cannot be ordered by “self-cleavage kobs at 10000 uM GlcN6P” value: under 1e-05 s⁻¹ for the first, under 1e-05 s⁻¹ for the second.

Going from C11U G29A A39C to G7A G13C G60A, the “self-cleavage kobs at 10000 uM GlcN6P” value falls from 3.89e-05 ± 1.6e-05 s⁻¹ to under 1e-05 s⁻¹.

C8U G29A U31G and C11G A12G G32C U57C cannot be ordered by “self-cleavage kobs at 10000 uM GlcN6P” value: under 1e-05 s⁻¹ for the first, under 1e-05 s⁻¹ for the second.

Going from A12G C16A G29U to A14G C58U C71U, the “self-cleavage kobs at 10000 uM GlcN6P” value falls from 0.000458 ± 9.3e-05 s⁻¹ to 0.00012 ± 2.1e-05 s⁻¹ (3.8-fold).

Variants of: B1
Test: self-cleavage kobs at 2500 uM GlcN6P; higher = faster cleavage; RNA array
Details: with glucosamine-6-phosphate
Procedure, shortened: as §1

In order of rising “self-cleavage kobs at 2500 uM GlcN6P” value:
1. U65G C67G C68G  3.55e-05 ± 1.4e-05 s⁻¹
2. C68U U69C C70U  3.99e-05 ± 1.4e-05 s⁻¹
3. C58A U65G C70U  6.2e-05 ± 2.7e-05 s⁻¹
4. A64C C67G C68A  6.52e-05 ± 1.8e-05 s⁻¹
